# Assay results taken from IntAct's records for PubMed 24207126.
# B1: Eukaryotic translation initiation factor 4E-binding protein 2 (Homo sapiens), Q13542 (parent)
# chain: MSSSAGSGHQPSQSRAIPTRTVAISDAAQLPHDYCTTPGGTLFSTTPGGTRIIYDRKFLLDRRNSPMAQTPPCHLPNIPGVTSPGTLIEDSKVEVNNLNNLNNHDRKHAVGDDAQFEMDI
# Variants of: B1
# Details: with if4e_human EIF4E
row,Variant,effect of a mutation on the interaction
1,MSSSAGSGHQPSQSRAIPTRTVAISDAAQLPHDYCTTPGGTLFSTTPGGTRIIADRKFALDRRNSPMAQTPPCHLPNAAAAASPGTLIEDSKVEVNNLNNLNNHDRKHAVGDDAQFEMDI [Y54A;L59A;I78A;P79A;G80A;V81A;T82A],disrupting interaction strength

# Variants of: B1
# Details: with if4e_human EIF4E
# Remark: another data set of the same source
row,Variant,effect of a mutation on the interaction
1,MSSSAGSGHQPSQSRAIPTRTVAISDAAQLPHDYCTTPGGTLFSTTPGGTRIIADRKFALDRRNSPMAQTPPCHLPNIPGVTSPGTLIEDSKVEVNNLNNLNNHDRKHAVGDDAQFEMDI [Y54A;L59A],decreasing interaction strength
2,MSSSAGSGHQPSQSRAIPTRTVAISDAAQLPHDYCTTPGGTLFSTTPGGTRIIYDRKFLLDRRNSPMAQTPPCHLPNAAAAASPGTLIEDSKVEVNNLNNLNNHDRKHAVGDDAQFEMDI [I78A;P79A;G80A;V81A;T82A],decreasing interaction strength
